Measurements reported in doi:10.1101/2023.01.01.522448.
Where “and” joins values, the source holds several entries; their conditions need not be identical. Equal values may be shown once.

Assays:
[1] = molecular target: recombinant L-asparaginase from Pseudomonas resinovorans IGS-131 (PrASNase) (Pseudomonas resinovorans IGS-131); assay: cross-linking + SEC
[2] = molecular target: recombinant L-asparaginase from Pseudomonas resinovorans IGS-131 (PrASNase) (Pseudomonas resinovorans IGS-131); assay: AUC
[3] = molecular target: recombinant L-asparaginase from Pseudomonas resinovorans IGS-131 (PrASNase) (Pseudomonas resinovorans IGS-131); assay: SEC
[4] = molecular target: recombinant L-asparaginase from Pseudomonas resinovorans IGS-131 (PrASNase) (Pseudomonas resinovorans IGS-131); assay: SAXS
[5] = molecular target: recombinant L-asparaginase from Pseudomonas resinovorans IGS-131 (PrASNase) (Pseudomonas resinovorans IGS-131); assay: SEC; remark: listed apart in the source

Substance: recombinant L-asparaginase from Pseudomonas resinovorans IGS-131 (PrASNase) (enzyme)
- stoichiometry N [1]: 2
- percent present as dimer [2]: 4.8%
- percent present as monomer [2]: 94.9%
- stoichiometry N [3]: 2
- stoichiometry N [4]: 2 and 4
- stoichiometry N [5]: 2
